A short description of this data set: label from the status in PepcDB records.
Take “MKLGYSLSKSNAKNFKFYINGSAMGYKNIIINGAKSWNASPYLNTVSKGRDANPHFIISSSTIDRGATVAVCETWAYKGSKLVAKNEITTFKAFRSLSVGDKTETIAHEFGHGLGLGHVKTKNAIMLDVGFTKKIKPQRDDLNGIKAIYKLEHHHHHH”: the protein production entry is on record as “failed”.

Regarding “MTTIVPTSEENPFLAVVRFTSQLAWADAGPEAAEPEITRLCREAEESMVAEKWLELSSLMVTSAELVSSKISEKDLECTYTIICSIVKNAKSPEQVLEMVKAIASKVAQQPSDKASLRLKILFNLYNLVDHPYARFQVYMKALTLAVDGKVTEYIVSSFKKIDNFLKEWNIDIKDQRELFLAIANVLKENKSLVNESLKFLTKYLATFSNEDAQVLDEAKEEAVRAVIEFVKASSIFQCDLLDLPAVAQLEKDAKYAPVYQLLKIFLTQRLNAYTEFQNANSGFLQSYGLSNEDCVTKMRLLSLVDLASDESGKIPYTSIKDTLQVNEQDVELWIVKAITAKLIESALPNVNLGQSNGNLSEQSLRLGSIITTIESNKVTEEGSQASSSSAAAIQGLSVR”, the protein production entry is recorded as “failed”.

As for “MGQQELAFGGGEFHSLWSCRFGAATLARRGCAFRNALAIMRGFPSALAGVRRTMHTLQQLRSGELAGATRLDLSCGLREFPREIFELADSLEVLNLSGNALDSLPDDLGRLHRLKVLFCSANDFDELPAAVGDCPALSMVGFKSNRIERVPAAALPPALRWLILTDNRIATLPEELGRRPLQKLMLAGNRLEALPESMAACEGLELLRIAANRFQRLPAWLATLPRLAWLAYAGNPLCRLPALADSGIAALDWSELSLDGLIGEGASGVIHRAGWHQPDGSTRTVALKLFKGEVTSDGTPASEMAACLAAGRHAQLIEVLGQLAGHPQGRDGLVLELLDDAYRNLAGPPSLESCTRDVYPPGLRFELATALRLAASLAALMAHLHGRGISHGDFYAHNILWREDGACLLGDFGAASFLPDDAVLAGALRRLEVRAFACLLEELLERSEAPPGQASLSAALVELQRRCALPRVSERPDFGEIQAILRDLAARSQAFPQVR”, the protein production result was “failed”.

With “MLIPSKLHFPRRLHNAILRQRVLDTLENAMHYKLVLFRSPAGYGKTTMAAQWLSDKDATGWYSLDESDNDEYKFAKYFVQTISNATHTELSHSKALTEKRQFASLSSLFSQVFTELISFQDEAYIVLDDYHLITNDTIHLGLKFFLKHLPDNLTLVITSRSQPPLNTANLRVRDLLIEIDNQSLAFDQSETSLFFNQRLNENIDQEAITHVREHVEGWPSALQLIALHSIQNNQSLNNSAQVMAQLNHAHLWDYLAEEVFDHLDQETQQFLMRCAVFDHFNTTLLSKVTQRKDAQLLIENLNRFGLFINTNGEQGDWYKFHNLFAEFLTHQRQNHLAHEEIDLQKYAAEAWLEHDNIYQALRHAKNAKDDILIANILTQHGWHLFNNGELSLLETTISDLRPEVLFTSPRLVIIRAWLAQSQHNYLQVNDLLSEAQREMADRNIVLDRHMQGEIDALRAQVAINKNEPEAALAFAEKALEELETNKYRSRIVATSVIGEYHHVSGNLAQALALMQQTEKMAMTYGIYHQALWAILQQSEILMAQGFMQAAFDLQDNGFKLIEDQDLHQLPLHEFLLRSRAQIYWFWFRFDEAEQCTWKGLDVLSPFDETKHLRGYSMLARLAVARGELDKAERYLDKCQQLLGQSDYHIDWKANASSAQLFYWQAKNNSEAIQYWLAQAERPETRCNHFTQLQWRNIARAQFHLGDIDTAIETLQTSQTIAQQHKLITDINRNAILAAILLYENKQIDEAVEAMHLAIKQSNQTGIIGSFLMAGRNVLKPLGKLQQKGNVTELEKHRIEQLQKALSNNERSRSAHFDETFIEKVLNTPEVPELIRTSPLTHREWQVLGLIYSGFSNEQIAAEFDVAPTTIKTHIRNLYQKLNLPNRKAAIAMADELVGMMK”, the protein production entry was “failed”.

For the sequence “MTSGGNSIEPSVVAEAEKMLFCYQYDQTITISITSSADPCPLCNGGFLDEYVDPNPNPIPNLILPMSDPISSRFSFIPVMDFTNPSFLGESMEPQSTQQQLNAFDPNQLSDQANPLAGNHGDYFFGRGLEDLI”, the protein production result is “failed”.

On to “MNKTFVGFIFLLFLVGGVVSCQRSSSPYPYSLRYADSLMEISPERTLAYLRKLDVSTYSAGDRAYFSLLFTQATDKNMLSLLPCDSLIDTALDYYIKKDGVNWAKAWLYKGRIQKKMNMTEQALKSCFTALQGVEGNTGEELKLKGMLYEDMGSIYLHQSLYQKAFDAFYRSYQCDSLLNDHRLVMYPLSNMGWVRVIQGKTVEAFYYLNQSIQLALRLNDSAFVSDIYERMSLNCENVDSAFLYAHLSHQYLTKDGDSISLWLTFGDLYLDKQELDSAEYYLKRILDTADFKRKILASYSLAEVEKIRGNYQRAFEYQSYYGDNIDSIFLLNKASDIERLAYKYDSEAKVVKEKEKQRFLIQQLCYGGVLFLLVIVVIFQRVYRRRQIARLLYEQRITYLNEKTALSQLQIERLEVQISALKQSGMEREQEIDLKQAELCCVIDEKARLRNCLFMETSIFKHIRELSTQPRLGQNGTKGSPKVLLMKEQEQLKNILFGIYDDYIRYLKGTYPKITDNDCIYCCLKLCEFDDQTIAYCFGNVSKQIVAQRRLRLKKKMAEAN”, for which the protein production result is listed as “failed”.

As to “MKTAKRRAFAFATFAIAGLAACENTSSPSLPKDQVMAPGVDLRAAAKQDSSEAVEAGHRMIAAGEYELALRAFNRAALSRGALDAEILSGLGTANLGLGRLGQAEELLRRAVRDDAAQPVDYNNLGVLLMEQGNTAEALQYFRRAFALSNGENIAIRDNLRLALAKTENSATLEAEKSSEYKLVRRGNSDFVIRPTP”, the protein production result is given as “failed”.

Regarding “MERAAFGKLVQALRREHRDEKGRVWTQEVLAERTQLPKRTIERIENGSLAHLDADILLRLADALELTIGERREFFFAATGIIEQKSATYKRSPEESLQYLIDMIRNMNVPAFVTDQYVNIIAANMITIRFFNIPMELIETAPLLPHGYNLMRVVFGTEYDFRRVVGTMWDEVARHNMQLFRAISLRVRADGYFVELLDNLMQYREFKRFWERAHLETEDTSAENFWYQYTHPVYGLLSYVSSRSQIPTSMGLLSMHTYIPLSPATTDLFAKLSTVANQDVIRLAPWPRSNG”, the protein production entry was “not failed”.

As to “MGHHHHHHSHMVANPPASKESIDALPEILVTEDHGAVGQEMCCPICCSEYVKGEVATELPCHHYFHKPCVSIWLQKSGTCPVCRCMFPPPL”, the protein production entry is reported as “failed”.

As for “MTKKVMIKGDIVDDQTAGFYQFFGMPAVSPSGVADILNDDSGDDDDDGDDEALEVDIASNGGDVFAASEIYTMLKNYAGNVTVNIQGLAASAASVIAMAGDHINISPTAQIMIHKAWSQPAGNADDLEHEASVLNGIDQSIASAYEAKTGMDQADLLQLMANETWLTASDAVDKGFADEIMFANDQQLQPVNAISHIPPKSAVNKLMNLIYKADKDKAKPSKKENTTNGQSAELRNSKLAILFEKNQKEAN”, the protein production entry is given as “failed”.

As for “MGLGVACSSSQPPGSTTEANGPAVSSGPSLFLLHTTPADGLVLHDARTDESRTLAAGATAKPARAVSPSGRHLAFSYATADSSHLTLLDLTTQQAHRVHAAAGTSVAYSLAWHPNQERLAVGYYRPTDDGGRGPGGLQVVTPDGTTRDVGCSSVREVLHWLPDGSLAARTDDNLYVVDAGDCATQASLDIRRMHHLRYAPTGQQMAYIYRELEYDRDRGEYVPDSSFVLSGPDGTNPETLFGNERHARHHRWAPETNEVALDVRVEASGHRQVVVYDGSRPTFLVSPDQTTADQVHPRWSPSGNRIAFTLRSDASSQAAVRVKGQTRRLGRVDGAVWGWLDDRSVVVPGPDSVRVKALNGTTRYAHPTPQTLLHVWRRSAS”, the protein production result is “failed”.

Consider “MSMNSEPTPAEAFFLEGNRLLAASECRAAEACFREALALAPDFAEAHANLGMLLDQEGMAAEAERQYRLALALNPRLGHTHSNLGVLLANQKRFEEAESAYLSAIELEPDSPAAWSNLGVLQACRKQEREAEESYRTALRLDPDYHRASFNLSYLLLRQGRFDEGWSLLESRNRRWFARLEEHLPCPRWRGEDLQGRSLLIGLEAGHGDMIQFCRYAPLLKDRGAARITLVCHVALKDLLKTLDGVDTVISFDEILPDDAWDFWTPAMSIPCYCRTRLDSIPARIPYLHADPGLAEQWAAMLEREWAGPEMRIGLAWKGNPHFENDGDRSLPHLKTLEPLGAVAGVRFFSLQKGAGEEEAAQPPAGLPVVNLMRHIAGFADTAALVANLDLVITVDTAVAHLAGALGTECWVLLPEYRTDWRWLTGRTDSPWYPGVMRLFRQPRVGDWETVVAEVGEALRLFAARPRSPRGTR”, for which the protein production result is “failed”.

For the sequence “MLIFGFIGLFFLNIFSLHAQGIVTNKDAQEEFKWALNSYNNGIYDDALLSFKKILSFDPNNLDYHFWTGNVYYRLGYVEEALMEWRNLKDQGYKVPYLRHLISTIEQRRGIFSNYELNFKKLVKVASLDNSIYKRPHGYQITSLRADKYGGYYAANFVGNEILYFDVNNNVNALVKDGFSYLKSPYDVIEANNLLYVTLYSSDEIGVYDKVLGVKRKSIGNKGTKDGELLAPQYMAIDKRNYIYVSEWGNKRVSKFGLEGDFILHFGSRTSGYKGLLGPTGVTYLNENIYVADSLRNTIEVFDTSGNHLYSVFTSIEGIEGLSSDFVGNNVIVSSKDGVYKYSIAKKTITKILKADKMNSKISSSILDANNQMIVSDFNNAKVSVYKSDASLYDSLNVDVRRIIRLGGPKIYVELNVSSKSGLPVVGLKSENFSISNENYYIVNPKVAYNVNASKDINIAVVFDKSSYMKKYDTDQIVGLNALMELSKNKNFSFINATSVPIIDNIESLTNSIRNTSSLGPYSTDAVKTDVSLKLAGSGLMSKSSRRAVVYFSGGILNRKAFEKYSLDTIVSYYKNNDIRFYLILFGNDPINSKLQYLVNETGGAVIPFSSYEGVSKVYDLILEQKTGTYLLEYYYPGPQEPNKYFNLSVEANINQQTGRGEFAYFINLEHHHHHH”, the protein production entry is “failed”.

In the case of “MAGCGANDTSSTKEKASSEKSGVTKEITASVNKMETIISKLNDSVEKGDQKEIEKKGKELNSYWLSFENDIRSDYPFEYTEIEKHLQPIYTEAQKDKPDAGKIKTESESLKASLEDLTEAKKSGKKASDQLAKAADEYKGYVKEQSDQLVKATEAFTGAVKSGDIEKSKTLYAKARVYYERIEPIAESLGDLDPKIDARENDVEEGDKWTGFHKLEKAIWKDQDISGEKATADQLLKDVKELDGSIQSLKLTPEQIVAGAMELLNEAGISKITGEEERYSRIDLVDLMANVEGSEAVYQTVKSALVKDHSDLTEKLDTEFSEFEVLMAKYKTNDQSYTSYDKLSEKQIRELSTKLTTLSETMSKIANVLLEHHHHHH”, the protein production result was “not failed”.

As for “MYSMLKRVITEKDLLRQIRLLEQLLNVPQLTAKRLAAQIQTTERTVFSDLQYIRSQLPADWSIETDSSGIRLRNQGNAQTNELWSLFLPQSISIQLLKELLFTKELVTTSFLSTSGVSYETLKRHIKKMNQALRDFHLTIQLTTMTIQLIGAESNIRIFYHRLLVPFTHNNYFFDDYSIHEEHYFQFLKQVYSSELTVETEEIFGACWFFINTIRNKANCRVSQFSFDSKDVLFQLYQPSLAKLYASEGIYLQGEESFFAFFCFLESWNYDNVYGETLASALHTHYSQLRKSLQQFVTNLSTEEARPDLIQTNLLDNLLLLFIKYTESPTLSEQFQLEYQELMTEQAAEDLALSKSNQELLEILSRYTTIEEPTYFLSLASLLEKQAIYSIQAQTMTAYFLFQGEPAWKAFLQQELAAYLGTRVKLQAIEYVELSQLTLNEADIIISNFPLDHLDLPVFYLSLIPTKNELRRLAELTLHSYF”, the protein production result is on record as “not failed”.

Values taken from a protein production outcome set (Wang et al. 2014).
